First the molecules themselves.
B1: M43 (HC-R57E / LC-K45E) (antibody, human IgG1, kappa, V domains shown)
VH: QVQLVQSGAEVKKPGSSVKVSCKASGYAFTSYWMHWVRQAPGQGLEWMGQINPTTGESQYNEKFKTRVTITADKSTSTAYMELSSLRSEDTAVYYCARWGLQPFAYWGQGTLVTVSS
VL: DIQMTQSPSFLSASVGDRVTITCKASQDVSTAVAWYQQKPGKAPELLIYSASYRYTGVPSRFSGSGSGTDFTLTISSLQPEDFATYYCQQHYSTPWTFGGGTKVEIKR
notes: IgG1-P238K; also called HC11/LC3
B2: M64 (HC-K63Q / LC-K45Q,R54Q,R61Q) (antibody, human IgG1, kappa, V domains shown)
VH: QVQLVQSGAEVKKPGSSVKVSCKASGYAFTSYWMHWVRQAPGQGLEWMGQINPTTGRSQYNEQFKTRVTITADKSTSTAYMELSSLRSEDTAVYYCARWGLQPFAYWGQGTLVTVSS
VL: DIQMTQSPSFLSASVGDRVTITCKASQDVSTAVAWYQQKPGKAPQLLIYSASYQYTGVPSQFSGSGSGTDFTLTISSLQPEDFATYYCQQHYSTPWTFGGGTKVEIKR
notes: IgG1-P238K; also called HC16/LC4
B3: M56 (HC-R38Q,K63Q,R67Q / LC-K45Q,R54Q,R61Q) (antibody, human IgG1, kappa, V domains shown)
VH: QVQLVQSGAEVKKPGSSVKVSCKASGYAFTSYWMHWVQQAPGQGLEWMGQINPTTGRSQYNEQFKTQVTITADKSTSTAYMELSSLRSEDTAVYYCARWGLQPFAYWGQGTLVTVSS
VL: DIQMTQSPSFLSASVGDRVTITCKASQDVSTAVAWYQQKPGKAPQLLIYSASYQYTGVPSQFSGSGSGTDFTLTISSLQPEDFATYYCQQHYSTPWTFGGGTKVEIKR
notes: IgG1-P238K; also called HC8/LC4
B4: M46 (HC-K74T / LC-K45E) (antibody, human IgG1, kappa, V domains shown)
VH: QVQLVQSGAEVKKPGSSVKVSCKASGYAFTSYWMHWVRQAPGQGLEWMGQINPTTGRSQYNEKFKTRVTITADTSTSTAYMELSSLRSEDTAVYYCARWGLQPFAYWGQGTLVTVSS
VL: DIQMTQSPSFLSASVGDRVTITCKASQDVSTAVAWYQQKPGKAPELLIYSASYRYTGVPSRFSGSGSGTDFTLTISSLQPEDFATYYCQQHYSTPWTFGGGTKVEIKR
notes: IgG1-P238K; also called HC14/LC3
B5: M55 (HC-K23E / LC-K45Q,R54Q,R61Q) (antibody, human IgG1, kappa)
heavy: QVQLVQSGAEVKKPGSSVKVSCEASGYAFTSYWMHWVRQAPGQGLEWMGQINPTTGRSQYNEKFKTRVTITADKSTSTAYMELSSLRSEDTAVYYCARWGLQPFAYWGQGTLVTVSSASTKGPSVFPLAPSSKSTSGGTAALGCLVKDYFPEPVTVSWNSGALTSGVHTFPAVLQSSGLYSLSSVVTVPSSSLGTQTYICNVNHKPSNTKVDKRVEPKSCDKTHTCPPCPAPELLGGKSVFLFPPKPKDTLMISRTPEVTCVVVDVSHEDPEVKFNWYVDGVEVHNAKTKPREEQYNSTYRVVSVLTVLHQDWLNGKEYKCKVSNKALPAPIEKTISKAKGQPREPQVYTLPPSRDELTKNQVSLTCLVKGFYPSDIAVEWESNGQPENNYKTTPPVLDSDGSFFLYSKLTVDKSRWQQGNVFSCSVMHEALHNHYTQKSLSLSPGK
light: DIQMTQSPSFLSASVGDRVTITCKASQDVSTAVAWYQQKPGKAPQLLIYSASYQYTGVPSQFSGSGSGTDFTLTISSLQPEDFATYYCQQHYSTPWTFGGGTKVEIKRTVAAPSVFIFPPSDEQLKSGTASVVCLLNNFYPREAKVQWKVDNALQSGNSQESVTEQDSKDSTYSLSSTLTLSKADYEKHKVYACEVTHQGLSSPVTKSFNRGEC
notes: IgG1-P238K; also called HC7/LC4
B6: M44 (HC-R57E,K74Q / LC-K45E) (antibody, human IgG1, kappa, V domains shown)
VH: QVQLVQSGAEVKKPGSSVKVSCKASGYAFTSYWMHWVRQAPGQGLEWMGQINPTTGESQYNEKFKTRVTITADQSTSTAYMELSSLRSEDTAVYYCARWGLQPFAYWGQGTLVTVSS
VL: DIQMTQSPSFLSASVGDRVTITCKASQDVSTAVAWYQQKPGKAPELLIYSASYRYTGVPSRFSGSGSGTDFTLTISSLQPEDFATYYCQQHYSTPWTFGGGTKVEIKR
notes: IgG1-P238K; also called HC12/LC3
B7: M52 (HC-K12E / LC-K45Q,R54Q,R61Q) (antibody, human IgG1, kappa)
heavy: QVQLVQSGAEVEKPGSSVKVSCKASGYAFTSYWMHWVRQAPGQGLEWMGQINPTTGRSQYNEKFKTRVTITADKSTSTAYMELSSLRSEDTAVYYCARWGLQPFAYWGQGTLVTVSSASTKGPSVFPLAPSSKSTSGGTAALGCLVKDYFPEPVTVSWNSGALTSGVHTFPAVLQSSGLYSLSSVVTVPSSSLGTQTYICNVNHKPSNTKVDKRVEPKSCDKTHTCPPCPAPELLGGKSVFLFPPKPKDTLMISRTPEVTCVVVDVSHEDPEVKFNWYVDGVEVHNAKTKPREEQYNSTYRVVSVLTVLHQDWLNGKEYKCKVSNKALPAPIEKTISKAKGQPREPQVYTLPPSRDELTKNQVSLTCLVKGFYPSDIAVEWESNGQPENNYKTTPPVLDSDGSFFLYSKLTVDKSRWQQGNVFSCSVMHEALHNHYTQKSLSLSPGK
light: DIQMTQSPSFLSASVGDRVTITCKASQDVSTAVAWYQQKPGKAPQLLIYSASYQYTGVPSQFSGSGSGTDFTLTISSLQPEDFATYYCQQHYSTPWTFGGGTKVEIKRTVAAPSVFIFPPSDEQLKSGTASVVCLLNNFYPREAKVQWKVDNALQSGNSQESVTEQDSKDSTYSLSSTLTLSKADYEKHKVYACEVTHQGLSSPVTKSFNRGEC
notes: IgG1-P238K; also called HC4/LC4
B8: M59 (HC-R57E / LC-K45Q,R54Q,R61Q) (antibody, human IgG1, kappa, V domains shown)
VH: QVQLVQSGAEVKKPGSSVKVSCKASGYAFTSYWMHWVRQAPGQGLEWMGQINPTTGESQYNEKFKTRVTITADKSTSTAYMELSSLRSEDTAVYYCARWGLQPFAYWGQGTLVTVSS
VL: DIQMTQSPSFLSASVGDRVTITCKASQDVSTAVAWYQQKPGKAPQLLIYSASYQYTGVPSQFSGSGSGTDFTLTISSLQPEDFATYYCQQHYSTPWTFGGGTKVEIKR
notes: IgG1-P238K; also called HC11/LC4
B9: M45 (HC-E46K,E62K / LC-K45E) (antibody, human IgG1, kappa, V domains shown)
VH: QVQLVQSGAEVKKPGSSVKVSCKASGYAFTSYWMHWVRQAPGQGLKWMGQINPTTGRSQYNKKFKTRVTITADKSTSTAYMELSSLRSEDTAVYYCARWGLQPFAYWGQGTLVTVSS
VL: DIQMTQSPSFLSASVGDRVTITCKASQDVSTAVAWYQQKPGKAPELLIYSASYRYTGVPSRFSGSGSGTDFTLTISSLQPEDFATYYCQQHYSTPWTFGGGTKVEIKR
notes: IgG1-P238K; also called HC13/LC3
B10: M50 (HC-K12Q,K13Q / LC-K45Q,R54Q,R61Q) (antibody, human IgG1, kappa)
heavy: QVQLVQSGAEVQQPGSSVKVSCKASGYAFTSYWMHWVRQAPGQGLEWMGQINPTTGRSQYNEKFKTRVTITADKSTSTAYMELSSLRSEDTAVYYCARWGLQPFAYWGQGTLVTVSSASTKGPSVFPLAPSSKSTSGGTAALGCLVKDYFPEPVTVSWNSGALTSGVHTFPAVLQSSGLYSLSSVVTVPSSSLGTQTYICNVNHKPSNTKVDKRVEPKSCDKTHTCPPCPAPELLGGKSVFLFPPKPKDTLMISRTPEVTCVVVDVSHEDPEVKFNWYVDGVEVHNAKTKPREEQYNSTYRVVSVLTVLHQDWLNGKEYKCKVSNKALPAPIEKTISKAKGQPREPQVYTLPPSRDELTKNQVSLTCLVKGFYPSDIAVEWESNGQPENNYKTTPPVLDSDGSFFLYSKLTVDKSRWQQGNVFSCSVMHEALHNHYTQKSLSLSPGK
light: DIQMTQSPSFLSASVGDRVTITCKASQDVSTAVAWYQQKPGKAPQLLIYSASYQYTGVPSQFSGSGSGTDFTLTISSLQPEDFATYYCQQHYSTPWTFGGGTKVEIKRTVAAPSVFIFPPSDEQLKSGTASVVCLLNNFYPREAKVQWKVDNALQSGNSQESVTEQDSKDSTYSLSSTLTLSKADYEKHKVYACEVTHQGLSSPVTKSFNRGEC
notes: IgG1-P238K; also called HC2/LC4
B11: M57 (HC-K63Q,R67E / LC-K45Q,R54Q,R61Q) (antibody, human IgG1, kappa, V domains shown)
VH: QVQLVQSGAEVKKPGSSVKVSCKASGYAFTSYWMHWVRQAPGQGLEWMGQINPTTGRSQYNEQFKTEVTITADKSTSTAYMELSSLRSEDTAVYYCARWGLQPFAYWGQGTLVTVSS
VL: DIQMTQSPSFLSASVGDRVTITCKASQDVSTAVAWYQQKPGKAPQLLIYSASYQYTGVPSQFSGSGSGTDFTLTISSLQPEDFATYYCQQHYSTPWTFGGGTKVEIKR
notes: IgG1-P238K; also called HC9/LC4
B12: M60 (HC-R57E,K74Q / LC-K45Q,R54Q,R61Q) (antibody, human IgG1, kappa, V domains shown)
VH: QVQLVQSGAEVKKPGSSVKVSCKASGYAFTSYWMHWVRQAPGQGLEWMGQINPTTGESQYNEKFKTRVTITADQSTSTAYMELSSLRSEDTAVYYCARWGLQPFAYWGQGTLVTVSS
VL: DIQMTQSPSFLSASVGDRVTITCKASQDVSTAVAWYQQKPGKAPQLLIYSASYQYTGVPSQFSGSGSGTDFTLTISSLQPEDFATYYCQQHYSTPWTFGGGTKVEIKR
notes: IgG1-P238K; also called HC12/LC4
B13: M48 (HC-K63Q / LC-K45E) (antibody, human IgG1, kappa, V domains shown)
VH: QVQLVQSGAEVKKPGSSVKVSCKASGYAFTSYWMHWVRQAPGQGLEWMGQINPTTGRSQYNEQFKTRVTITADKSTSTAYMELSSLRSEDTAVYYCARWGLQPFAYWGQGTLVTVSS
VL: DIQMTQSPSFLSASVGDRVTITCKASQDVSTAVAWYQQKPGKAPELLIYSASYRYTGVPSRFSGSGSGTDFTLTISSLQPEDFATYYCQQHYSTPWTFGGGTKVEIKR
notes: IgG1-P238K; also called HC16/LC3
B14: M61 (HC-E46K,E62K / LC-K45Q,R54Q,R61Q) (antibody, human IgG1, kappa, V domains shown)
VH: QVQLVQSGAEVKKPGSSVKVSCKASGYAFTSYWMHWVRQAPGQGLKWMGQINPTTGRSQYNKKFKTRVTITADKSTSTAYMELSSLRSEDTAVYYCARWGLQPFAYWGQGTLVTVSS
VL: DIQMTQSPSFLSASVGDRVTITCKASQDVSTAVAWYQQKPGKAPQLLIYSASYQYTGVPSQFSGSGSGTDFTLTISSLQPEDFATYYCQQHYSTPWTFGGGTKVEIKR
notes: IgG1-P238K; also called HC13/LC4
B15: M51 (HC-K12Q,K13Q,K23Q / LC-K45Q,R54Q,R61Q) (antibody, human IgG1, kappa, V domains shown)
VH: QVQLVQSGAEVQQPGSSVKVSCQASGYAFTSYWMHWVRQAPGQGLEWMGQINPTTGRSQYNEKFKTRVTITADKSTSTAYMELSSLRSEDTAVYYCARWGLQPFAYWGQGTLVTVSS
VL: DIQMTQSPSFLSASVGDRVTITCKASQDVSTAVAWYQQKPGKAPQLLIYSASYQYTGVPSQFSGSGSGTDFTLTISSLQPEDFATYYCQQHYSTPWTFGGGTKVEIKR
notes: IgG1-P238K; also called HC3/LC4
B16: M58 (HC-R67E / LC-K45Q,R54Q,R61Q) (antibody, human IgG1, kappa, V domains shown)
VH: QVQLVQSGAEVKKPGSSVKVSCKASGYAFTSYWMHWVRQAPGQGLEWMGQINPTTGRSQYNEKFKTEVTITADKSTSTAYMELSSLRSEDTAVYYCARWGLQPFAYWGQGTLVTVSS
VL: DIQMTQSPSFLSASVGDRVTITCKASQDVSTAVAWYQQKPGKAPQLLIYSASYQYTGVPSQFSGSGSGTDFTLTISSLQPEDFATYYCQQHYSTPWTFGGGTKVEIKR
notes: IgG1-P238K; also called HC10/LC4

In this test the target is T1, soluble human CD40 extracellular domain (human, UniProt P25942 21-193).
T1 construct: Produced in house; also called hCD40; soluble hCD40 extracellular domain
T1 sequence (P25942 21-193 limits assumed): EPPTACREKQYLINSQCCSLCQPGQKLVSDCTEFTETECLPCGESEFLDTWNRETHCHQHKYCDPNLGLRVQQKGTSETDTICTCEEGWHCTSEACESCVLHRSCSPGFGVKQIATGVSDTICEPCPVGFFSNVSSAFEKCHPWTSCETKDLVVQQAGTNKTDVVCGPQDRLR
In words: SPR, Ab captured from supernatant on protein A, hCD40 ECD analyte. On the procedure: The titer data (Table 21) were used to normalize the antibody concentration in each supernatant to 3 μg/ml, and these antibodies were captured out of the supernatants on a protein A CMS Series S sensor chip (GE Healthcare), and tested for binding to two concentrations (5 nM and 50 nM) of soluble hCD40 extracellular domain.
CD40 binding SPR of antibody supernatants: Surface plasmon resonance (SPR) studies were conducted on a BIAcore™ T200 instrument (GE Healthcare, Chicago Ill.). A Series S Protein A sensor chip (GE Healthcare, Chicago Ill.) was equilibrated with SPR running buffer of 10 mM NaPO₄, 130 mM NaCl, 0.05% tween 20, (PBS-T) pH 7.2 at 25° C. The 96 antibody supernatants were normalized to a concentration of 3 μg/ml by diluting with PBS-T using a PerkinElmer JANUS® G3 system (PerkinElmer, Akron, Ohio). After priming the system, the 3 μg/ml antibody samples were captured on the protein A surface for 30 s at 10 μl/min Binding of 50 nM and 500 nM human CD40 extracellular domain (produced in house) was evaluated using association time of 180 s at 30 μl/min, followed by a dissociation time of 180 s at 30 μl/min Regeneration between cycles was accomplished using two 15 s injections of 10 mM glycine pH 1.5. […] Data were analyzed using BIAcore™ T200 evaluation software by fitting to a 1:1 Langmuir model.
A general note: Surface plasmon resonance follows binding to a sensor surface in real time, without labels.
As for B1, the affinity, expressed as Kd, was 11.7 nM.
Turning to B2, the Kd (as a rule, the constant that tells how readily two partners part at equilibrium) stood at 3.3 nM.
As for B3, the Kd amounted to 2.5 nM.
Molecule B4 displayed a Kd of 3.9 nM.
Molecule B5 yielded a Kd of 3.5 nM.
Next, B6: 17.2 nM; B7: 2.6 nM.
The value for B8 was 9.5 nM; that for B9 was 8.8 nM; that for B10 was 2.5 nM.
Consider B11, for which binding was put at a Kd of 2.5 nM.
Molecule B12 displayed a dissociation constant (Kd) of 14.7 nM.
Turning to B13, the Kd was 3.8 nM.
The value for B14 was 7.5 nM; that for B15 was 2.9 nM.
Molecule B16 displayed a Kd of 2.1 nM.

For the origin of these results see patent US20230203177A1 (Bristol-Myers Squibb, published 2023).
